In paper PMC11764377:

Columns and labels:
[1] = molecular target: Allochromatium tepidum LH1 α1β1 heterodimer subunit (of the Ca2+-bound LH1-α1β1 complex) (Allochromatium tepidum); experiment: cryo-EM structure; LH1-only complex co-expressed in Rsp. rubrum H2 and purified in β-DDM, ~5 mg/mL; C14 symmetry applied; closed ring of 14 αβ-heterodimers
[2] = molecular target: Allochromatium tepidum LH1 α2β1 heterodimer subunit (of the Ca2+-free LH1-α2β1 complex) (Allochromatium tepidum); experiment: as above

Substance | stoichiometry N [1] | stoichiometry N [2]
Allochromatium tepidum LH1 α1β1 heterodimer subunit (of the Ca2+-bound LH1-α1β1 complex) | 14 | –
Allochromatium tepidum LH1 α2β1 heterodimer subunit (of the Ca2+-free LH1-α2β1 complex) | – | 14
